Source: paper PMC9352680, “A comprehensive thermodynamic model for RNA binding by the Saccharomyces cerevisiae Pumilio protein PUF4”

T1: PUF4 RNA-binding domain (Saccharomyces cerevisiae, UniProt P25339 537-888)
T1 sequence: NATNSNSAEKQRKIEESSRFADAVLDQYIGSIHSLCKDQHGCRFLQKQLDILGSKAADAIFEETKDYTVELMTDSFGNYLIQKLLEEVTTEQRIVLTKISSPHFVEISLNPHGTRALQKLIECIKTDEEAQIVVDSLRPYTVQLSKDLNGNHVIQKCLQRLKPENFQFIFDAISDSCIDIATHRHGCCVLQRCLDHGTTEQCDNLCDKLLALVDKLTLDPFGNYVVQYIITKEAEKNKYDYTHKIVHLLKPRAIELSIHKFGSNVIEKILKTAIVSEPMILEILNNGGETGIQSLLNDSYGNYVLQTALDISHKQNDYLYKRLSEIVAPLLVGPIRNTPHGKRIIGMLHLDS


Target: T1, PUF4 RNA-binding domain
Assay: Mg; RNA-MaP; 20 mM Na-HEPES pH 7.4, 30 mM KOAc, 0.75 mM MgCl2, 0.1% Tween-20, 5% glycerol, 0.1 mg/mL BSA, 2 mM DTT; 25 C; 0.0125-409.6 nM protein
Conditions: tags: N-His6-TEV cleaved; C-SNAP kept, Cy3B-labelled; label: tethered on chip by stalled RNA polymerase

Binder	Kd [nM]
ACAAACGUUAUAUUAUUACUACAAAC (ssRNA) [Id_ii_S3_P5E.3_K5.2_C5.2_[C-2G]_H5.2_A5.1_F5.1_T5.2_[T11C]_[A12T]]	580
ACAAACUAUAUAUUAUUAAUACAAAC (ssRNA) [Id_ii_S3_P5E.3_K5.2_C5.2_[C-2T]_[T-1A]_H5.2_A5.1_F5.1_T5.2_[T11A]_[A12T]]	18.3
ACAAACUUUAUAUUAUUACCACAAAC (ssRNA) [Id_ii_S3_P5E.3_K5.2_C5.2_[C-2T]_H5.2_A5.1_F5.1_T5.2_[T11C]_[A12C]]	268
ACAAACCAACACUAUUAACACAAAC (ssRNA) [Id_ii_S3_P4E.4_K4.3_C4.2_[T-1A]_H4.3_A4.1_F4.1_T4.2_[G10A]_[T11C]]	> 2300
UCUCUUUGUAUUGUUUUCUCUU (ssRNA) [Ic_S1_P5E.1_K5.1_C5.1_H5.1_A5.1_[A7G]_F5.1_[A10T]_T5.1]	42.9
ACAAACCGACACUAUUAACACAAAC (ssRNA) [Id_ii_S3_P4E.4_K4.3_C4.2_[T-1G]_H4.3_A4.1_F4.1_T4.2_[G10A]_[T11C]]	> 2300
ACAAACAUACACUAUUAACACAAAC (ssRNA) [Id_ii_S3_P4E.4_K4.3_C4.2_[C-2A]_H4.3_A4.1_F4.1_T4.2_[G10A]_[T11C]]	1470
ACAAACGGUAUAUUAUUAGGACAAAC (ssRNA) [Id_ii_S3_P5E.3_K5.2_C5.2_[C-2G]_[T-1G]_H5.2_A5.1_F5.1_T5.2_[T11G]_[A12G]]	28.9
ACAAACACUAUAUUAUUAUCACAAAC (ssRNA) [Id_ii_S3_P5E.3_K5.2_C5.2_[C-2A]_[T-1C]_H5.2_A5.1_F5.1_T5.2_[A12C]]	370
ACAAACACUAUAUUAUUACAACAAAC (ssRNA) [Id_ii_S3_P5E.3_K5.2_C5.2_[C-2A]_[T-1C]_H5.2_A5.1_F5.1_T5.2_[T11C]]	459
ACAAACGAUAUAUUAUUAAAACAAAC (ssRNA) [Id_ii_S3_P5E.3_K5.2_C5.2_[C-2G]_[T-1A]_H5.2_A5.1_F5.1_T5.2_[T11A]]	704
ACAAACCAACACUAUUAAGACAAAC (ssRNA) [Id_ii_S3_P4E.4_K4.3_C4.2_[T-1A]_H4.3_A4.1_F4.1_T4.2_[G10A]_[T11G]]	> 2300
ACAAACCCACACUAUUAACACAAAC (ssRNA) [Id_ii_S3_P4E.4_K4.3_C4.2_[T-1C]_H4.3_A4.1_F4.1_T4.2_[G10A]_[T11C]]	> 2300
ACAAACCAACACUAUUAAUACAAAC (ssRNA) [Id_ii_S3_P4E.4_K4.3_C4.2_[T-1A]_H4.3_A4.1_F4.1_T4.2_[G10A]]	> 2300
ACAAACUCUAUAUUAUUACGACAAAC (ssRNA) [Id_ii_S3_P5E.3_K5.2_C5.2_[C-2T]_[T-1C]_H5.2_A5.1_F5.1_T5.2_[T11C]_[A12G]]	230
ACAAACGAUAUAUUAUUAGGACAAAC (ssRNA) [Id_ii_S3_P5E.3_K5.2_C5.2_[C-2G]_[T-1A]_H5.2_A5.1_F5.1_T5.2_[T11G]_[A12G]]	164
ACAAACACUAUAUUAUUAAGACAAAC (ssRNA) [Id_ii_S3_P5E.3_K5.2_C5.2_[C-2A]_[T-1C]_H5.2_A5.1_F5.1_T5.2_[T11A]_[A12G]]	626
ACAAACAAUAUAUUAUUAACACAAAC (ssRNA) [Id_ii_S3_P5E.3_K5.2_C5.2_[C-2A]_[T-1A]_H5.2_A5.1_F5.1_T5.2_[T11A]_[A12C]]	535
ACAAACAUACACUAUUAUUACAAAC (ssRNA) [Id_ii_S3_P4E.4_K4.3_C4.2_[C-2A]_H4.3_A4.1_F4.1_T4.2_[G10T]]	600
ACAAACCCACACUAUUAAGACAAAC (ssRNA) [Id_ii_S3_P4E.4_K4.3_C4.2_[T-1C]_H4.3_A4.1_F4.1_T4.2_[G10A]_[T11G]]	> 2300
UCUCUUGGCAUUAUUAUCUCUU (ssRNA) [Ib_S1_P5E.1_K5.1_C5.1_H5.1_[T1G]_[T3C]_A5.1_F5.1_T5.1]	1040

Binder	Kd [nM]
ACAAACCGACACUAUUAAAACAAAC (ssRNA) [Id_ii_S3_P4E.4_K4.3_C4.2_[T-1G]_H4.3_A4.1_F4.1_T4.2_[G10A]_[T11A]]	> 2300
ACAAACUUUAUAUUAUUACGACAAAC (ssRNA) [Id_ii_S3_P5E.3_K5.2_C5.2_[C-2T]_H5.2_A5.1_F5.1_T5.2_[T11C]_[A12G]]	381
ACAAACCGACACUAUUAUGACAAAC (ssRNA) [Id_ii_S3_P4E.4_K4.3_C4.2_[T-1G]_H4.3_A4.1_F4.1_T4.2_[G10T]_[T11G]]	> 2300
ACAAACCAACACUAUUACGACAAAC (ssRNA) [Id_ii_S3_P4E.4_K4.3_C4.2_[T-1A]_H4.3_A4.1_F4.1_T4.2_[G10C]_[T11G]]	> 2300
ACAAACGCUAUAUUAUUAACACAAAC (ssRNA) [Id_ii_S3_P5E.3_K5.2_C5.2_[C-2G]_[T-1C]_H5.2_A5.1_F5.1_T5.2_[T11A]_[A12C]]	812
ACAAACCAACACUAUUAGUACAAAC (ssRNA) [Id_ii_S3_P4E.4_K4.3_C4.2_[T-1A]_H4.3_A4.1_F4.1_T4.2]	> 2300
ACAAACACUAUAUUAUUAAAACAAAC (ssRNA) [Id_ii_S3_P5E.3_K5.2_C5.2_[C-2A]_[T-1C]_H5.2_A5.1_F5.1_T5.2_[T11A]]	485
UCUCUUUGUAUUCUUUUCUCUU (ssRNA) [Ic_S1_P5E.1_K5.1_C5.1_H5.1_A5.1_[A7C]_F5.1_[A10T]_T5.1]	28.6
ACAAACCCACACUAUUAAAACAAAC (ssRNA) [Id_ii_S3_P4E.4_K4.3_C4.2_[T-1C]_H4.3_A4.1_F4.1_T4.2_[G10A]_[T11A]]	> 2300
ACAAACACUAUAUUAUUACGACAAAC (ssRNA) [Id_ii_S3_P5E.3_K5.2_C5.2_[C-2A]_[T-1C]_H5.2_A5.1_F5.1_T5.2_[T11C]_[A12G]]	493
ACAAACAUACACUAUUAGAACAAAC (ssRNA) [Id_ii_S3_P4E.4_K4.3_C4.2_[C-2A]_H4.3_A4.1_F4.1_T4.2_[T11A]]	846
UCUCUUGUUAUUAUUAUCUCUU (ssRNA) [Ib_S1_P5E.1_K5.1_C5.1_H5.1_[T1G]_[G2T]_A5.1_F5.1_T5.1]	56.7
ACAAACAUACACUAUUAAAACAAAC (ssRNA) [Id_ii_S3_P4E.4_K4.3_C4.2_[C-2A]_H4.3_A4.1_F4.1_T4.2_[G10A]_[T11A]]	1130
ACAAACUAUAUAUUAUUACAACAAAC (ssRNA) [Id_ii_S3_P5E.3_K5.2_C5.2_[C-2T]_[T-1A]_H5.2_A5.1_F5.1_T5.2_[T11C]]	13.5
UCUCUUCAUAUUAUUAUCUCUU (ssRNA) [Ib_S1_P5E.1_K5.1_C5.1_H5.1_[T1C]_[G2A]_A5.1_F5.1_T5.1]	> 2300
ACAAACGAUAUAUUAUUACAACAAAC (ssRNA) [Id_ii_S3_P5E.3_K5.2_C5.2_[C-2G]_[T-1A]_H5.2_A5.1_F5.1_T5.2_[T11C]]	173
ACAAACAAUAUAUUAUUAAAACAAAC (ssRNA) [Id_ii_S3_P5E.3_K5.2_C5.2_[C-2A]_[T-1A]_H5.2_A5.1_F5.1_T5.2_[T11A]]	550
ACAAACGAUAUAUUAUUAAUACAAAC (ssRNA) [Id_ii_S3_P5E.3_K5.2_C5.2_[C-2G]_[T-1A]_H5.2_A5.1_F5.1_T5.2_[T11A]_[A12T]]	285
ACAAACGCUAUAUUAUUAAUACAAAC (ssRNA) [Id_ii_S3_P5E.3_K5.2_C5.2_[C-2G]_[T-1C]_H5.2_A5.1_F5.1_T5.2_[T11A]_[A12T]]	480
ACAAACAGUAUAUUAUUAGAACAAAC (ssRNA) [Id_ii_S3_P5E.3_K5.2_C5.2_[C-2A]_[T-1G]_H5.2_A5.1_F5.1_T5.2_[T11G]]	35.5
ACAAACGAUAUAUUAUUACCACAAAC (ssRNA) [Id_ii_S3_P5E.3_K5.2_C5.2_[C-2G]_[T-1A]_H5.2_A5.1_F5.1_T5.2_[T11C]_[A12C]]	519

Binder	Kd [nM]
ACAAACAUACACUAUUAAUACAAAC (ssRNA) [Id_ii_S3_P4E.4_K4.3_C4.2_[C-2A]_H4.3_A4.1_F4.1_T4.2_[G10A]]	740
ACAAACUAUAUAUUAUUAUUACAAAC (ssRNA) [Id_ii_S3_P5E.3_K5.2_C5.2_[C-2T]_[T-1A]_H5.2_A5.1_F5.1_T5.2_[A12T]]	19.2
ACAAACAGUAUAUUAUUAAGACAAAC (ssRNA) [Id_ii_S3_P5E.3_K5.2_C5.2_[C-2A]_[T-1G]_H5.2_A5.1_F5.1_T5.2_[T11A]_[A12G]]	36.4
ACAAACGAUAUAUUAUUAGCACAAAC (ssRNA) [Id_ii_S3_P5E.3_K5.2_C5.2_[C-2G]_[T-1A]_H5.2_A5.1_F5.1_T5.2_[T11G]_[A12C]]	164
UCUCUUCGAAUUAUUAUCUCUU (ssRNA) [Ib_S1_P5E.1_K5.1_C5.1_H5.1_[T1C]_[T3A]_A5.1_F5.1_T5.1]	> 2300
ACAAACCCACACUAUUAAUACAAAC (ssRNA) [Id_ii_S3_P4E.4_K4.3_C4.2_[T-1C]_H4.3_A4.1_F4.1_T4.2_[G10A]]	> 2300
ACAAACCAACACUAUUAUCACAAAC (ssRNA) [Id_ii_S3_P4E.4_K4.3_C4.2_[T-1A]_H4.3_A4.1_F4.1_T4.2_[G10T]_[T11C]]	> 2300
ACAAACAAUAUAUUAUUAGUACAAAC (ssRNA) [Id_ii_S3_P5E.3_K5.2_C5.2_[C-2A]_[T-1A]_H5.2_A5.1_F5.1_T5.2_[T11G]_[A12T]]	118
ACAAACUUUAUAUUAUUAGCACAAAC (ssRNA) [Id_ii_S3_P5E.3_K5.2_C5.2_[C-2T]_H5.2_A5.1_F5.1_T5.2_[T11G]_[A12C]]	82.9
ACAAACCGACACUAUUAUUACAAAC (ssRNA) [Id_ii_S3_P4E.4_K4.3_C4.2_[T-1G]_H4.3_A4.1_F4.1_T4.2_[G10T]]	> 2300
ACAAACUCUAUAUUAUUAAGACAAAC (ssRNA) [Id_ii_S3_P5E.3_K5.2_C5.2_[C-2T]_[T-1C]_H5.2_A5.1_F5.1_T5.2_[T11A]_[A12G]]	684
ACAAACCAACACUAUUACUACAAAC (ssRNA) [Id_ii_S3_P4E.4_K4.3_C4.2_[T-1A]_H4.3_A4.1_F4.1_T4.2_[G10C]]	> 2300
ACAAACCAACACUAUUAGCACAAAC (ssRNA) [Id_ii_S3_P4E.4_K4.3_C4.2_[T-1A]_H4.3_A4.1_F4.1_T4.2_[T11C]]	> 2300
ACAAACAAUAUAUUAUUAUCACAAAC (ssRNA) [Id_ii_S3_P5E.3_K5.2_C5.2_[C-2A]_[T-1A]_H5.2_A5.1_F5.1_T5.2_[A12C]]	576
ACAAACGAUAUAUUAUUAACACAAAC (ssRNA) [Id_ii_S3_P5E.3_K5.2_C5.2_[C-2G]_[T-1A]_H5.2_A5.1_F5.1_T5.2_[T11A]_[A12C]]	313
ACAAACCCACACUAUUACCACAAAC (ssRNA) [Id_ii_S3_P4E.4_K4.3_C4.2_[T-1C]_H4.3_A4.1_F4.1_T4.2_[G10C]_[T11C]]	> 2300
ACAAACCGACACUAUUACCACAAAC (ssRNA) [Id_ii_S3_P4E.4_K4.3_C4.2_[T-1G]_H4.3_A4.1_F4.1_T4.2_[G10C]_[T11C]]	> 2300
UCUCUUUGUAAUAUUAUCUCUU (ssRNA) [Ia_S1_P5E.1_K5.1_C5.1_H5.1_A5.1_[T5A]_F5.1_T5.1]	6.33
ACAAACCUACACUAUUAACACAAAC (ssRNA) [Id_ii_S3_P4E.4_K4.3_C4.2_H4.3_A4.1_F4.1_T4.2_[G10A]_[T11C]]	> 2300
ACAAACAAUAUAUUAUUAAUACAAAC (ssRNA) [Id_ii_S3_P5E.3_K5.2_C5.2_[C-2A]_[T-1A]_H5.2_A5.1_F5.1_T5.2_[T11A]_[A12T]]	614
